Assay results published in patent US20070185028A1, “Compositions and methods for treatment of protein misfolding and protein aggregation diseases” (priority 2004, published 2007).

Molecular target: T1, CS (Sus scrofa, UniProt P00889)
T1 sequence (P00889 28-464): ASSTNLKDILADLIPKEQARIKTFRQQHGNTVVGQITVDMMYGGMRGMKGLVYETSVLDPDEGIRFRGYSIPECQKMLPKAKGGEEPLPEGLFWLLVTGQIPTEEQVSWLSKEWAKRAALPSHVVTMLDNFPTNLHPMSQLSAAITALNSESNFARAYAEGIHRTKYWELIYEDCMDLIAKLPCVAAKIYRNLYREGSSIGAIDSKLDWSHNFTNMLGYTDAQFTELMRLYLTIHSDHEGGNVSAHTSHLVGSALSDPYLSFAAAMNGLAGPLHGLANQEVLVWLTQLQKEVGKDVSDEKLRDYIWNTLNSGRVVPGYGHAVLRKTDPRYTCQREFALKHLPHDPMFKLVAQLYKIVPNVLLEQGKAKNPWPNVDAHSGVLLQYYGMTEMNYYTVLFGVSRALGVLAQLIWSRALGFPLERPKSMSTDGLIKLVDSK
Assay: Chaperone assay, thermal aggregation of CS at 50° C.
Format: biochemical
Conditions: 10:1 molar ratio of peptide:CS, sixty minutes, 340 nm
Procedure: The chaperone activity of the peptides was measured as their ability to protect against the thermal aggregation of three chaperone target proteins βH crystallin, ADH and CS in chaperone assays performed at 50° C. (FIG. 19). A non-interactive αB crystallin sequence 111HGKHEERQDE120 was used as the negative control in the chaperone assays (FIG. 19). Based on near and far UVCD, the three target proteins unfolded in the order: CS>>>ADH>>βH crystallin when they were heated at 50° C. for sixty minutes (FIGS. 15 and 16). The thermal aggregation of βH crystallin, ADH and CS was measured as light scattering at λ=340 nm in the presence and absence of each peptide. The chaperone activity of each peptide was calculated as percent protection in which the aggregation of each target protein in the absence of any peptides was set at 0% protection (FIG. 19). The interactive peptides […] and 131LTITSSLSDGV141 were effective inhibitors of aggregation of all three chaperone target proteins.
A (top left): thermal aggregation of chaperone target proteins βH crystallin, ADH and CS in the absence of peptides was measured as light scattering at λ=340 nm. […] The chaperone activity of each peptide was calculated as percent protection in which the aggregation of each target protein in the absence of any peptides was set at 0% protection. […]

Sequence: HGKHEERQDE
- percent protection against thermal aggregation of CS: partial protection
